Target: PD-L1 expressed on target cells (K562-PDL1, A375-PDL1, A549-HLA-A2/PDL1) (UniProt Q9NZQ7 19-290, limits assumed)
Assay: cell-based or functional assay

PD-L1 expressed on target cells (K562-PDL1, A375-PDL1, A549-HLA-A2/PDL1), sequence (Q9NZQ7 19-290 limits assumed): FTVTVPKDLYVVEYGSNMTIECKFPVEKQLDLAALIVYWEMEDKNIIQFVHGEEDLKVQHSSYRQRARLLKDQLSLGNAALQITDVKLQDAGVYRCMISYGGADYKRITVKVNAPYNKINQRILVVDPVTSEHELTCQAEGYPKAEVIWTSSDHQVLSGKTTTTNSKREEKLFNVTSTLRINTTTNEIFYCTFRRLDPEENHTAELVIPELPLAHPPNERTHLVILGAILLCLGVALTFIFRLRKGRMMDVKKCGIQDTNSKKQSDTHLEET

- T cell expansion (GSK-794 and 2007 TCR T cells on A375-PDL1 cells): ≥ 60 fold
B1: PD1-28-TNR9(41BBt) PD-1 chimeric co-stimulatory receptor (PD-1 extracellular domain_CD28 stalk, transmembrane and signaling domain_truncated 4-1BB signaling … (receptor)
chain: FLDSPDRPWNPPTFSPALLVVTEGDNATFTCSFSNTSESFVLNWYRMSPSNQTDKLAAFPEDRSQPGQDCRFRVTQLPNGRDFHMSVVRARRNDSGTYLCGAISLAPKAQIKESLRAELRVTERRAEVPTAHPSPSPRPALFPGPSKPFWVLVVVGGVLACYSLLVTVAFIIFWVRSKRSRLLHSDYMNMTPRRPGPTRKHYQPYAPPRDFAAYRSQPFMRPVQTTQEEDGCSCRFPEEEEGGCEL
